EP4574844A1 (Numab Therapeutics AG, dated 2025)

Legend:
[1] = biological target: T1, LILRB4 on transiently transfected CHO cells (UniProt Q8NHJ6 22-448); test: CELISA, transiently transfected CHO cells
T1 construct: whole, on cells; V5 tag at the N-terminus

[2] = biological target: T2, LILRB1 on transiently transfected CHO cells (UniProt Q8NHL6 24-650); test: CELISA, transiently transfected CHO cells
T2 construct: whole, on cells; V5 tag at the N-terminus

[3] = biological target: T3, LILRA3 on transiently transfected CHO cells (UniProt Q8N6C8 24-439); test: CELISA, transiently transfected CHO cells
T3 construct: whole, on cells; V5 tag at the N-terminus
T3 sequence (Q8N6C8 24-439): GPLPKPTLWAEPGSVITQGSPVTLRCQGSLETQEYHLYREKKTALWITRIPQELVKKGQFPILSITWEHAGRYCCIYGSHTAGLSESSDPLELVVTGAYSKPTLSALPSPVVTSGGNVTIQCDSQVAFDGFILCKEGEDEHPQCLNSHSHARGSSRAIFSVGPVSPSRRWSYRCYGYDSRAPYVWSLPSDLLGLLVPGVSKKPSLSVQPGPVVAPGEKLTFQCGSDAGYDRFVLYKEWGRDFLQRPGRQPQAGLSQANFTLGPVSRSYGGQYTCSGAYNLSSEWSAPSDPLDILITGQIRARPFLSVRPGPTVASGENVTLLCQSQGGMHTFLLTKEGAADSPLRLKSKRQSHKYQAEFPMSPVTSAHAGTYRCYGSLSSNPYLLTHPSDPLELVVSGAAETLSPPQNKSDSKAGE

[4] = biological target: T4, LILRA2 on transiently transfected CHO cells (UniProt Q8N149 24-483); test: CELISA, transiently transfected CHO cells
T4 construct: whole, on cells; V5 tag at the N-terminus
T4 sequence (Q8N149 24-483): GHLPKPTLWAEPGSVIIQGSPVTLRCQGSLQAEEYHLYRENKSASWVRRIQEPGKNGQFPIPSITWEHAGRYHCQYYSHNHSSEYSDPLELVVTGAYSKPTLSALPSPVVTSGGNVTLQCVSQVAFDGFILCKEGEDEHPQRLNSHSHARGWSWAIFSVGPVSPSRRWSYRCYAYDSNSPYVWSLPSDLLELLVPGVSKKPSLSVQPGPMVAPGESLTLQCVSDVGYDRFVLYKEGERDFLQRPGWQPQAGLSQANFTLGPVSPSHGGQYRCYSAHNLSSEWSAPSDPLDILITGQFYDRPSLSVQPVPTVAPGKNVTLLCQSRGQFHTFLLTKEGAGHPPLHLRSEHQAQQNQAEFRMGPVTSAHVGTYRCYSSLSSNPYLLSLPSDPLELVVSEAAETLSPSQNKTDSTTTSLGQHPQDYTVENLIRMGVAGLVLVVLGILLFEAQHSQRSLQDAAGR

[5] = biological target: T5, LILRA4 on transiently transfected CHO cells (UniProt P59901 24-499); test: CELISA, transiently transfected CHO cells
T5 construct: whole, on cells; V5 tag at the N-terminus
T5 sequence (P59901 24-499): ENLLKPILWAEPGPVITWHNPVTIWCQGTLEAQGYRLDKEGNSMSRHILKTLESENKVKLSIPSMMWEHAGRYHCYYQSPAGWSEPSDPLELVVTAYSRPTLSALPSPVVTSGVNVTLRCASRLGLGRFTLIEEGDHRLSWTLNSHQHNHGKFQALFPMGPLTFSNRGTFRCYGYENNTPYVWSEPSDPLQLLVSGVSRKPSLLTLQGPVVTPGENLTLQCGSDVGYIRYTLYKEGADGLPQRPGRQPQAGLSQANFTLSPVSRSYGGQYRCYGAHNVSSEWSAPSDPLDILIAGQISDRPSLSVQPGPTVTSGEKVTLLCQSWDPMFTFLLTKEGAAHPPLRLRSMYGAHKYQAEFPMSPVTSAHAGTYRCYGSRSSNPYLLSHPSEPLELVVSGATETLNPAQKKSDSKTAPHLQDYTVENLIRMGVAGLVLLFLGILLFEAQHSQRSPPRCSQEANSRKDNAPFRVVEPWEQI

[6] = biological target: T6, LILRB3 on transiently transfected CHO cells (UniProt O75022 24-631, limits assumed); test: CELISA, transiently transfected CHO cells
T6 construct: whole, on cells; V5 tag at the N-terminus

[7] = biological target: T7, LILRB5 on transiently transfected CHO cells (UniProt O75023 24-590, limits assumed); test: CELISA, transiently transfected CHO cells
T7 construct: whole, on cells; V5 tag at the N-terminus
T7 sequence (O75023 24-590 limits assumed): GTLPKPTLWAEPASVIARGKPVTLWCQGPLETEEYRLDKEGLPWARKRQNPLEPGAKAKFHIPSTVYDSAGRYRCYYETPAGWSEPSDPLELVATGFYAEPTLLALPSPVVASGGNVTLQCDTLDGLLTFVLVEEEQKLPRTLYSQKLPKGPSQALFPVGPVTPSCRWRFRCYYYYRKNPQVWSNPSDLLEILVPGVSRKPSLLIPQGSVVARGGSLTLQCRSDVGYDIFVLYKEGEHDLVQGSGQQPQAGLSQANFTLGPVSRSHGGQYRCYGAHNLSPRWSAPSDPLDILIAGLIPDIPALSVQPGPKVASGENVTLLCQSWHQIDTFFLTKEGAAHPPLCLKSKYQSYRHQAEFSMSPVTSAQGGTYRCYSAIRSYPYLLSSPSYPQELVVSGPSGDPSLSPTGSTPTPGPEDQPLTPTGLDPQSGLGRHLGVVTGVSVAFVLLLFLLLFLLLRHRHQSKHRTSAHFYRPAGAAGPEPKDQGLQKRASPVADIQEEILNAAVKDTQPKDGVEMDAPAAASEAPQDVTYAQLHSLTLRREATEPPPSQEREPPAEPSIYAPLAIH

[8] = biological target: T8, LILRB2 (Q8N423-2) on transiently transfected CHO cells (UniProt Q8N423-2 22-597); test: CELISA, transiently transfected CHO cells
T8 construct: whole, on cells
T8 sequence (Q8N423 22-597, one chain of several): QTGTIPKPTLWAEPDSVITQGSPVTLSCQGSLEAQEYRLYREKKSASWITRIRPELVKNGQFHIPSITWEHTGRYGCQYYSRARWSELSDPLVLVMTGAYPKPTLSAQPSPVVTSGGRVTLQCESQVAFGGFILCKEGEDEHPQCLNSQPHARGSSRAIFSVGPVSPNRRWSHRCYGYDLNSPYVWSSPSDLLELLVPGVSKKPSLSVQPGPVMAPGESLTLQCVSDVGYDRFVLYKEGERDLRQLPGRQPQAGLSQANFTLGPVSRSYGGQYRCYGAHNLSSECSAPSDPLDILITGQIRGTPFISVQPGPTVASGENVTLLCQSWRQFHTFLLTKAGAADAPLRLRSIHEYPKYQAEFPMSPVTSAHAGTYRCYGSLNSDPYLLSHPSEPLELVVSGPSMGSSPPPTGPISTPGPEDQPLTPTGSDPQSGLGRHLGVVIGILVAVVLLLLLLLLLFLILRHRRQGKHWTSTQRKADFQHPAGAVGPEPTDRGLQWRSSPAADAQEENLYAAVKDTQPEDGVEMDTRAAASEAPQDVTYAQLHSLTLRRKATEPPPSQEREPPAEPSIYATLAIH

[9] = biological target: T9, LILRA5 on transiently transfected CHO cells (UniProt A6NI73 42-299); test: CELISA, transiently transfected CHO cells
T9 construct: whole, on cells; V5 tag at the N-terminus
T9 sequence (A6NI73 42-299): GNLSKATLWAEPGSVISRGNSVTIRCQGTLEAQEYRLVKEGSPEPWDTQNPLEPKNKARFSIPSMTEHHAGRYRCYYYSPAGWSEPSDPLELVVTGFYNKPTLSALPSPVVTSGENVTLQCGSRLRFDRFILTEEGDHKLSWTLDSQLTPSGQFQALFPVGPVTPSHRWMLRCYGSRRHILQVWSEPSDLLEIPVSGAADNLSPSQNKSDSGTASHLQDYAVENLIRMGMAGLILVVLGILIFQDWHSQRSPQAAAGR

[10] = biological target: T10, LILRA1 on transiently transfected CHO cells (UniProt O75019 17-489, limits assumed); test: CELISA, transiently transfected CHO cells
T10 construct: whole, on cells; V5 tag at the N-terminus
T10 sequence (O75019 17-489 limits assumed): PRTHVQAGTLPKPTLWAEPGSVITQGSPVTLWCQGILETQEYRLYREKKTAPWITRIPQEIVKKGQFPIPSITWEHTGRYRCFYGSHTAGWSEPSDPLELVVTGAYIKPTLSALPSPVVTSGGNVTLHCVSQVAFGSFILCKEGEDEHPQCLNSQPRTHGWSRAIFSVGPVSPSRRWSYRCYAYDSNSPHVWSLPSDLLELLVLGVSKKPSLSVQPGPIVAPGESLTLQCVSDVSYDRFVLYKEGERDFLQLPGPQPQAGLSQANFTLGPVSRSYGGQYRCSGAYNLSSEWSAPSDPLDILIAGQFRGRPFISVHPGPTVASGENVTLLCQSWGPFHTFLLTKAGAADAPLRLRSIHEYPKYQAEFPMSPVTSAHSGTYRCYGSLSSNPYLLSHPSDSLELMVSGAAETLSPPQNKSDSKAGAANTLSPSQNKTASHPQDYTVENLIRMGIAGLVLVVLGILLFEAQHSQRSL

[11] = biological target: T11, LILRA6 on transiently transfected CHO cells (UniProt Q6PI73 24-481); test: CELISA, transiently transfected CHO cells
T11 construct: whole, on cells; V5 tag at the N-terminus
T11 sequence (Q6PI73 24-481): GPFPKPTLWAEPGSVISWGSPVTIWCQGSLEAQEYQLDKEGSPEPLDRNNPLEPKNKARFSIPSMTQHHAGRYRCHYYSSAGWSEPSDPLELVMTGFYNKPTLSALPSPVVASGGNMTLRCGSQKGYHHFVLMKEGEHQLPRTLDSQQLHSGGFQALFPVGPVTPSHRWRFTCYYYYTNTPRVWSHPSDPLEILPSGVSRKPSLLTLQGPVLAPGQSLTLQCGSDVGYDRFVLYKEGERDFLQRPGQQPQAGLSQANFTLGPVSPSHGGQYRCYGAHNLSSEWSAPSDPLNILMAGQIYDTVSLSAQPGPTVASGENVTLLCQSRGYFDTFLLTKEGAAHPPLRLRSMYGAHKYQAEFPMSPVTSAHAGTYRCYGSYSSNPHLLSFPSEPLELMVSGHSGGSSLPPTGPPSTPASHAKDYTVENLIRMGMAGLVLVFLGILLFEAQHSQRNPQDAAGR

[12] = biological target: T12, human LILRB2 on the cell surface (human, UniProt Q8N423 22-597); test: flow cytometry, CHO cells expressing LILRB2; competitor HLA-G tetramer
T12 construct: whole, on cells; also called CHO K1 cells expressing human LILRB2; LILRB2 on HMDMs
T12 sequence (Q8N423 22-597): as the sequence (Q8N423 22-597, one chain of several) above

[13] = biological target: T1, LILRB4 on transiently transfected CHO …; test: CELISA, transiently transfected CHO cells; scFv cross-linked with an anti-framework antibody
[14] = biological target: T3, LILRA3 on transiently transfected CHO …; test: as above
[15] = biological target: T4, LILRA2 on transiently transfected CHO …; test: as above
[16] = biological target: T5, LILRA4 on transiently transfected CHO …; test: as above
[17] = biological target: T6, LILRB3 on transiently transfected CHO …; test: as above
[18] = biological target: T7, LILRB5 on transiently transfected CHO …; test: as above
[19] = biological target: T9, LILRA5 on transiently transfected CHO …; test: as above
[20] = biological target: T10, LILRA1 on transiently transfected CHO …; test: as above
[21] = biological target: T11, LILRA6 on transiently transfected CHO …; test: as above
recombinant human LILRB2 = biological target: T13, recombinant human LILRB2 (human, UniProt Q8N423 22-460, limits assumed); test: SPR, LILRB2 immobilised, scFv as analyte
T13 construct: also called ILT4
T13 sequence (Q8N423 22-460 limits assumed): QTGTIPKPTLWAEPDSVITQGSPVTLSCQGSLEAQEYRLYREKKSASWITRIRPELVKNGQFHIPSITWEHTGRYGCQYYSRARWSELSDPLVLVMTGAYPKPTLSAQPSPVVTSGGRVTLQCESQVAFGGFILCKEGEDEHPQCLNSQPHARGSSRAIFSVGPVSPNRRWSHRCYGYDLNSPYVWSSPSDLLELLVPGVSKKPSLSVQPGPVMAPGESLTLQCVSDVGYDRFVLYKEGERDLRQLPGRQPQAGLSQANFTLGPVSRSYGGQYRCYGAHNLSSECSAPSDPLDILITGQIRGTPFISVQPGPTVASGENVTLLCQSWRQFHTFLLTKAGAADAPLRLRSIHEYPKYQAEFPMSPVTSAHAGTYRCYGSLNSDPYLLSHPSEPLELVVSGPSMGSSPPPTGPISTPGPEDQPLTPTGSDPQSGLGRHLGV

[22] = biological target: T12, human LILRB2 on the cell surface; test: flow cytometry, CHO cells expressing LILRB2; competitor HLA-G tetramer; reference PRO2518
[23] = biological target: T12, human LILRB2 on the cell surface; test: positive control of the LILRB2 ligand-blocking flow cytometry assay

T2 sequence (Q8NHL6 24-650): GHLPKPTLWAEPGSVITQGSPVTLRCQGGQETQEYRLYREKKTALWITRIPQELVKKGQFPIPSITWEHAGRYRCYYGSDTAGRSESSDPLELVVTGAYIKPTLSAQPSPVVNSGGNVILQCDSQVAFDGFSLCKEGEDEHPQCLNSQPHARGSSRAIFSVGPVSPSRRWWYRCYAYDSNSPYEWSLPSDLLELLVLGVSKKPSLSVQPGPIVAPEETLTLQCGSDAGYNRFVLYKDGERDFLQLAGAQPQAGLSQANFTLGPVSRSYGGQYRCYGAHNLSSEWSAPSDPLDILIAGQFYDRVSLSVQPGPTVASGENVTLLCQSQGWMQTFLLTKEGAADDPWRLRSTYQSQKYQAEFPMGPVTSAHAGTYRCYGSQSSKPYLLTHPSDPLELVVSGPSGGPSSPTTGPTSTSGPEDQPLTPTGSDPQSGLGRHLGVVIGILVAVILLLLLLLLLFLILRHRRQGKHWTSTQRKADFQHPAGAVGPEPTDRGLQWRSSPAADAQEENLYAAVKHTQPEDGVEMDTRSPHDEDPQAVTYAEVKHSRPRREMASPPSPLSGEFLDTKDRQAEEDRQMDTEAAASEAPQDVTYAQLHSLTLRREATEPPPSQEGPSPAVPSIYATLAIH

B1: PRO3635 (antibody, human IgG4 S228P, kappa, V domains shown)
VH: QQLVESGGGRVQPGGSLRLSCAASGFSFTNNYYMCWVRQAPGKGLEWIACMLVGAWGNTYYASWANGRFTISKDNSKNTVYLQMNSLRAEDTATYFCARARDYTWTLGGDPETSGFNLWGQGTQVTVSS
VL: DVQMTQSPSSLSASVGDRVTITCQASQSIGSNLAWYQQKPGKPPKLLIYKASTLESGVPSRFSGSGSGTDFTLTISSLQPEDFATYYCQSTAGSSRSGNYGYVFGQGTKVEIKR
notes: anti-LILRB2 IgG4; also called 68-18-E11-sc02 IgG4; IgG variant of scFv PRO3064
[1]
  binding result: no binding (tested: up to 100 nM)
[2]
  binding result: no binding (tested: up to 100 nM)
[3]
  binding result: no binding (tested: up to 100 nM)
[4]
  binding result: no binding (tested: up to 100 nM)
[5]
  binding result: no binding (tested: up to 100 nM)
[6]
  binding result: no binding (tested: up to 100 nM)
[7]
  binding result: no binding (tested: up to 100 nM)
[8]
  binding result: binds
[9]
  binding result: no binding (tested: up to 100 nM)
[10]
  binding result: no binding (tested: up to 100 nM)
[11]
  binding result: no binding (tested: up to 100 nM)

B2: PRO3697 (scFv)
scFv: AFQLTQSPSSLSASVGDRVTITCQASQSIGTYLAWYQQKPGKPPKLLIYRGGTLASGVPSRFSGSGSGTDFTLTISSLQPEDFATYYCQSYDSSNTFGTGTKVTVLGGGGGSGGGGSGGGGSGGGGSQEQLVESGGGLVQPGRSLRLSCAASGFDLSADYMCWVRQAPGKGLEWIACIYIDDDNTYYATWAKGRFTISKDNSKNTVYLQMNSLRAEDSAVYFCARGYGVYTGAITYFTLWGQGTLVKVSS
notes: anti-LILRB2 scFv; in the CELISA selectivity test it was cross-linked with an anti-framework antibody; also called 69-06-G04-sc05
[12]
  IC50: 0.593 nM
[13]
  binding result: no binding
[14]
  binding result: no binding
[15]
  binding result: no binding
[16]
  binding result: no binding
[17]
  binding result: no binding
[18]
  binding result: no binding
[19]
  binding result: no binding
[20]
  binding result: no binding
[21]
  binding result: no binding
Recombinant human LILRB2
  Kd: 0.131 nM
  koff: 0.000128 s⁻¹
  kon: 974000 M⁻¹ s⁻¹
[22]
  Rel. max. inhibition % (rel. to J-19): 99.5%

B3: PRO2518 (antibody, human IgG4 S228P, kappa, V domains shown)
VH: QITLKESGPTLVKPTQTLTLTCTFSGFSLNTYAMGVSWIRQPPGKALEWLASIWWNGNKYNNPSLKSRLTVTKDTSKNQVVLTMTNMDPVDTATYYCAHSRIIRFTDYVMDAWGQGTLVTVSS
VL: DIQMTQSPSSLSTSVGDRVTITCRASEDIYNDLAWYQQKPGKAPKLLIYNANSLHTGVASRFSGSGSGTDFTFTISSLQPEDVATYFCQQYYDYPLTFGQGTKLEIKR
notes: also called J19.H1; J-19
[23]
  binding result: binds
